Test results reported in the supplement of paper PMC7125110.
± gives the standard error. This sample holds only a part of the variants without activity.

B1: glmS ribozyme (parent)
chain: AUAAAAGCGCCAGAACUACAGAAAUGUAGUUGACGAGGAGGAGGUUUAUCGAAUUUUCGGCGGAUGCCUCCAAA

Experiments:
Conditions in all cases: with glucosamine-6-phosphate
[1] = variants of: B1; experiment: self-cleavage kobs at 40 uM GlcN6P; higher = faster cleavage; RNA array
Method in brief: (§1)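 Tiles bearing barcoded ribozyme variants, transcribed in situ by E. coli RNA polymerase on sequenced MiSeq chips, were imaged over ~14 h at 37 °C using a hybridised Cy3 probe. Glucosamine-6-phosphate was supplied at 40 μM to 10 mM in HEPES/KCl/Mg(OAc)2 buffer. kobs came from one- or two-exponential decay fits to normalised per-tile medians, and weighted Michaelis–Menten fits then provided kcat and KM.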

[2] = variants of: B1; experiment: self-cleavage kobs at 10000 uM GlcN6P; higher = faster cleavage; RNA array
Method in brief: as §1

[3] = variants of: B1; experiment: self-cleavage kobs at 160 uM GlcN6P; higher = faster cleavage; RNA array
Method in brief: as §1

[4] = variants of: B1; experiment: self-cleavage kobs at 640 uM GlcN6P; higher = faster cleavage; RNA array
Method in brief: as §1

[5] = variants of: B1; experiment: self-cleavage kobs at 2500 uM GlcN6P; higher = faster cleavage; RNA array
Method in brief: as §1

Variant | self-cleavage kobs at 40 uM GlcN6P [1] [s⁻¹] | self-cleavage kobs at 10000 uM GlcN6P [2] [s⁻¹] | self-cleavage kobs at 160 uM GlcN6P [3] [s⁻¹] | self-cleavage kobs at 640 uM GlcN6P [4] [s⁻¹] | self-cleavage kobs at 2500 uM GlcN6P [5] [s⁻¹]
AUAAAAGCGCCAGACCUACAGAAAUGUAGUUGACGAGGGGGAGGUUUAUCGAAUUGUCGGCGGAUGCCUCCAAA | 4.71e-05 ± 1.6e-05 | 0.00218 ± 0.00029 | – | – | –
AUAAAAGCGCCAGUACUACAGAAAUGUAGUUGACGAGGAGGAGGUUUAUCGAAUUGUCGGCGGAUGCCUCCAAA | 0.000924 ± 0.00012 | 0.0462 ± 0.0095 | 0.00383 ± 0.00078 | 0.0066 ± 0.0011 | 0.0108 ± 0.0026
AUAAAAGCGCCAGUACUACAGAAAUGUAGUUGACGAGGAGGAGGUUUAUCGCAUUUUCGGCGGAUGCCUCCAAA | < 1e-05 | – | < 1e-05 | – | –
AUAAAAGCGCCAGUACUACAGAAAUGUAGUUGACGAGGAGGAAGUUUAUCGAAUAUUCGGAGGAUGCCUCCAAA | < 1e-05 | < 1e-05 | – | – | –
AUAAAAGCGCCAGUACUACAGAAAUGUAGUUGACGAGGAGGAGGUUAAUCGAAUUUUCGGCGGAUGCCUCCAAA | 0.000141 ± 1.5e-05 | 0.00513 ± 0.00047 | 0.000575 ± 0.00028 | – | –
AUAAAAGCGCCAGUAUUACAGAAAUGUAGUUGACGAGGAGGAGGUUUAUCGAAUUUUCGGCGGAUGCCUUCAAA | 0.000248 ± 7.9e-05 | 0.00877 ± 0.0026 | – | – | 0.00092 ± 0.0002
AUAAAAGCGCCAGACCUACAGAAAUGUAGUUGACGAGGAGGCGGUUUAUCGAAUUUUCGGCGGAUGCCUCCAAA | < 1e-05 | < 1e-05 | – | < 1e-05 | –
AUAAAAGCGCCAGUACUACAGAAAUGUAGUUGACGAAGAGGAGGUUUAUUGAAUUUUCGGCGCAUGCCUCCAAA | < 1e-05 | – | – | – | –
AUAAAAGCGCCAGUACUACAGAAAUGUAGUUGACGAGGAGGAGGUUUAUGGAAUUUUUGGCGGAUGCCUCCAAA | 0.000443 ± 0.00014 | 3.69e-05 ± 1.8e-05 | – | – | –
AUAAAAGCGCCAGUACUACAGAAAUGUAUUUGACAAGGAGGAGGUUUAUCGAAUUUUCGGCGGAUGCCUCCAAA | < 1e-05 | – | – | – | –
AUAAAAGCGCCAGACCUACAGAAAUGUAGUUGACGAGGAGGAGGUUUAUCGAUUUUUCGGCAGAUGCCUCCAAA | < 1e-05 | < 1e-05 | – | – | < 1e-05
AUAAAAGCGCCAGUACUACAGAAAUGUAGUUGACGAGGCGGAGGUUUAACGAAUUUUCGGCGGAUGCCUCCAAA | < 1e-05 | – | – | – | –
AUAAAAGCGCCAGACCUACAGAAAUGUAGUUGUCGAGGAGGAGGUUUAUCGAAUUUUCGGAGGAUGCCUCCAAA | < 1e-05 | – | – | – | –
AUAAAAGCGCCAGUACUACAGAAAUGUAGUUGAACAGGAGGAGGAUUAUCGAAUUUUCGGCGGAUGUCUCCAAA | < 1e-05 | – | – | – | –
AUAAAAGCGCCAGGACUACAGAAAUGUAGUUGACGAGGAGGAGGUUUAUCGAAUUUUCGGCGGAUGCCCUCAAA | 0.000104 ± 3.2e-05 | 0.00316 ± 0.00074 | – | – | –
AUAAAAGCGCCAGUACUACAGAAAUGUAGUUGACGAGGAGGAGGUUUAUCGAAUUUUCGGAGGAUGCCUCCAAA | < 1e-05 | < 1e-05 | – | – | –
AUAAAAGCGCCAGGACUACAGAAAUGUAGUUGACGAGGAGGAGGUUUAUCGAAUUCUCUGCGGAUGCCUCCAAA | < 1e-05 | 2.7e-05 ± 1.3e-05 | – | – | –

Variant | self-cleavage kobs at 40 uM GlcN6P [1] [s⁻¹] | self-cleavage kobs at 10000 uM GlcN6P [2] [s⁻¹] | self-cleavage kobs at 160 uM GlcN6P [3] [s⁻¹] | self-cleavage kobs at 640 uM GlcN6P [4] [s⁻¹] | self-cleavage kobs at 2500 uM GlcN6P [5] [s⁻¹]
AUAAAAGCGCCAGUACUACAGAAAUGUAGUUGACGAGGAGGAGGUUUAUCGAAUAUUCGGCGGAUGCCUCCAAA | 0.000252 ± 3.9e-05 | 0.00696 ± 0.0011 | – | – | –
AUAAAAGCGCCAGUACUACAGAAAUGUAGUUGACGAGGAGGAGGUUUAUUGAAUUUUCCGCGGAUGCCUUCAAA | < 1e-05 | – | – | – | –
AUAAAAGCGCCAGUACUACAGAAAUGUAGUUGACUAGGAGGAGCUUUAUCGAAUUUCCGGCGGAUGCCUCCAAA | < 1e-05 | < 1e-05 | – | – | < 1e-05
AUAAAAGCGCCAGGACUACAGAAAUGUAGUUGACGAGGAGGAGGUUUAUCGAAUUUUCGGCGGAUGCCCCCAAA | 0.00132 ± 0.00036 | 0.00782 ± 0.0029 | – | – | –
AUAAAAGCGCCAGUACUACAGAAAUGUAGUUCACGAGGAGGAGGAUGAUCGAAUUUUCGGCGGAUGCCUCCAAA | < 1e-05 | 3.36e-05 ± 1.4e-05 | – | – | –
AUAAAAGCGCCAGUACUACAGAAAUGUAGUUGACGAGGAGGGGUUUUAUCGAAUUUUCGGCGUAUGCCUCCAAA | < 1e-05 | – | – | – | < 1e-05
AUAAAAGCGCCAGUACUACAGAAAUGUAGUUGACGAGGAGGAGGUUUAUCGAAUUUUCGGCGAAUGCCUCCAAA | < 1e-05 | – | – | < 1e-05 | –
AUAAAAGCGCCAGUACUACAGAAAUGUAGUUGACGAGGAGGAGGUUUAUCGAAUUUUCGGCGUAUGCCUCCAAA | < 1e-05 | – | < 1e-05 | < 1e-05 | < 1e-05
AUAAAAGCGCCAGUACUACAGAAAUGUAGUUGAUGAGGAGGAGGUUUAUCGAAUUUUCGGCGGAUGCCUCCAAA | < 1e-05 | < 1e-05 | < 1e-05 | < 1e-05 | < 1e-05
AUAAAAGCGCCAGUACUACAGAAAUGUAGUUGAGGAGGAGGAGGUUUAUCGAAUUUUCGGCGGAUGCCUCCAAA | < 1e-05 | < 1e-05 | < 1e-05 | < 1e-05 | –
AUAAAAGCGCCAGUGCUACAGAAAUGUAGUUGUCGAGGAGGAGGUUUUUUGAAUUUUCGCCGGAUGCCUCCAAA | < 1e-05 | – | – | – | –
AUAAAAGCGCCAGUACUACAGAAAUGUAGUUGACGAAGCGGAGGUUUAUCGAAUUUUCCGCGGAUGCCUCCAAA | < 1e-05 | – | – | – | –
AUAAAAGCGCCAGUACUACAGAAAUGUAGUUGGCGAGGAGGAGGUUUAUCGAAUUUUCGGCGGAUGCCUCCAAA | < 1e-05 | < 1e-05 | – | < 1e-05 | –
AUAAAAGCGCCAGGACUACAGAAAUGUAGUUGACGAGGAGGAGGUUUAUCGAAUUCUCGGGGGAUGCCUCCAAA | < 1e-05 | < 1e-05 | – | – | –
AUAAAAGCGCCAGUACUACAGAAAUGUAGUGGACGAGCAGGAGGUUUAUCGUUUUUUCGGCGGAUGCCUCCAAA | < 1e-05 | – | – | – | –
AUAAAAGCGCCAGUACUACAGAAAUGUACUUGACGAGUAGGAGGUUUAUGGAAUUUUCGGCGGAUGCCUCCAAA | 0.000223 ± 7.2e-05 | 7.38e-05 ± 1.8e-05 | – | – | –
AUAAAAGCGCCAGUACUACAGAAAUGUAGUUGACGAAGAGGAUGUUUAUCGAAUUUUCGGCGGAUGCGUGCAAA | < 1e-05 | – | – | – | –
